Target: ApoE 130-149 (Homo sapiens) (UniProt P02649)
Assay: NMR
Conditions: modification not given

ApoE 130-149 (Homo sapiens), sequence (P02649 130-149): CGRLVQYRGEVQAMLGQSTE

Row | Kd | Substance
1 | 405 µM | LDLR LA4 (in LA45), P01130
2 | 730 µM | LDLR LA5 (in LA45), P01130

Reference: paper PMC3263374
